How the values were obtained:
[1] = target: T1, SARS-CoV-2 S1 (HV69-70del, N501Y, D614G) (SARS-CoV-2, UniProt P0DTC2 16-685); assay: SPR
T1 construct: domain: S1

[2] = target: T2, SARS-CoV-2 S1 (HV69-70del, Y453F, D614G) (SARS-CoV-2, UniProt P0DTC2 16-685); assay: SPR
T2 construct: domain: S1

Binder	Kd [1]	Kd [2]
6-3 (Fc fusion) EVQLVESGGGLVQPGGSLRLSCAASGFTFSPSWMGWFRQAPGKEREFVATINEYGGRNYADSVKGRFTISADNSKNTAYLQMNSLKPEDTAVYYCARVDRDFDYWGQGTLVTVSS	9.3 nM	23 nM
6-63 (Fc fusion) EVQLVESGGGLVQPGGSLRLSCAASGQTFNMGWFRQAPGKEREFVAAIGSGGSTSYADSVKGRFTISADNSKNTAYLQMNSLKPEDTAVYYCWRLGNDYFDYWGQGTLVTVSS	63 nM	96 nM

— patent US20230002478A1 (TWIST BIOSCIENCE, published 2023)
